Measurements published in publication PMC6375223.

Target: SKP2 (UniProt Q13309)
Assay: co-immunoprecipitation from transfected 293T cells
Details: reference: wild-type PDCD4; sites S67

binding against the reference: lost
Substance: PDCD4 (from UniProt Q53EL6) PDCD4 S67A
